B1: JGI20: HACS variant; GenBank PWB41796.1 (protein)
chain: MGQITGAQIVARALKQQGVEYMFGIVGIPVIPIAMFAQREGIKFYGFRNEQSASYAAAAVGYLTGRPGVCLGVSGPGMIHGVAGMANAWSNCWPMILIGGANDSYQNGQGAFQEAPQIEAARPFAKYCARPDSLARLPFYVEQAVRTSIYGRPGAVYLDLPGDIITGAMEEEDVHFPPRCPDAPRMMAPQESIDAAMAALKSAERPLVIVGKGAAYSRAENEVREFLETTQLPYLASPMGKGVMPDDHPLSIAPARSAALLGADVILLMGARLNWMMHFGHPPRFDPKVRVIQMDISAEEIGTNVPTEVALVGDAKAITTQLNASLKQQPWQYPSETTWWTGLRKKIDENGATVAEMMADESVPMSYYRVYREIRDLIPNDAIIQNEGASTMDIGRTLMPNFLPRHRLDAGSFGTMGVGLGQAIAAAAVHPDKHVFCIEGDSAFGFSGMEVETAARYGMKNITFIIINNNGIGGGPDTLDPTRVPPSAYTPNAHYEKMAEIYGGKGYFVTEPSQLRPALEEAIKADKPAIVNIMISATSQRKPQQFAWLTR
B2: JGI15: HACS variant; GenBank HAK63664.1 (protein)
chain: MAKSEGKVNGATLMARALQQQGVQYMFGIVGFPVIPIAIAAQREGITYIGMRNEQSASYAAQAASYLTGRPQACLVVSGPGVVHALAGLANAQVNCWPMLLIGGASAIEQNGMGAFQEERQVLLASPLCKYAHQVERPERIPYYVEQAVRSALFGRPGAAYLDMPDDVILGEVEEAAVRPAATVGEPPRSLAPQENIEAALDALQSAKRPLVIVGKGMAWSRAENEVRQFIERTRLPFLATPMGKGVMPDDHPLSVGGARSHALQEADLVFLLGARFNWILHFGLPPRYSKDVRVIQLDLSAEEIGNNRQAEVALVGDGKAIVGQLNQALSSRQWFYPAETPWREAIAAKIAGNQAAVAPMIADNTSPMNYYRVYRDIAARLPRNAIIVGEGANTMDIGRTQMPNFEPRSRLDAGSYGTMGIGLGFAVAAAAVHPGRPVIAVQGDSAFGFSGMEFETAARYGMPIKVIILNNGGIGMGSPAPRDGQPGMPHALSHDARYERIAEAFGGAGFYVTDSAELGPALDAAMAFKGPAIVNIKIAATADRKPQQFNWHG

Legend:
[1] = test system: glycolate production from formaldehyde and formate; test: Resting-cell bioconversion pathway 2 (HACS with CaAbfT), co-feeding formaldehyde and formate; assay type: cell-based, E. coli
Text: (§1) We used glycolic acid (glycolate) productivity per cell density (uM glycolate/OD600) as indicator of HACS activity. Two different enzymatic routes for glycolate synthesis are explored. The first pathway (pathway 1) is similar to the pathway used for initial screening in Example 2 with addition of an extra gene, aldehyde dehydrogenase aldA from Escherichia coli (EcAldA) overexpressed to drive flux from glycolaldehyde to glycolate (FIG. 21A). In addition, HACS and LmACR-AldA are controlled under independent inducible promoters to investigate the impact of varying relative gene expressions (FIG. 21B). The second pathway (pathway 2) involves independent fluxes of formaldehyde and formyl-CoA allowing assessment of the enzyme activity with response to changing formaldehyde concentration only, while maintaining constant formyl-CoA flux. Formyl-CoA is generated by formic acid (formate) catalyzed by the acyl-CoA transferase from Clostridium aminobutyricum (CaAbfT) (FIG. 22A).
(§2) For the in vivo prototyping, we engineered vectors to independently control expression of HACS variants and the LmACR-EcAldA (pathway 1, FIG. 21A) or CaAbfT (pathway 2, FIG. 22A), with HACS under control of the IPTG-inducible T7 promoter in pCDFDuet-1 and LmACR-EcAldA or CaAbfT under control of a cumate-inducible T5 promoter in pETDuet-1 (FIG. 21B). As a host for these vectors, we used an engineered strain of E. coli based on MG1655(DE3) with knockouts for formaldehyde (ΔfrmA) and formate (ΔfdhF ΔfdnG ΔfdoG) oxidation as well as for glycolate utilization (ΔglcD)), which we expected could compete or interfere with the analysis of our pathway. […]
(§3) Cells from the above pre-cultures were then centrifuged (4000 rpm, 22° C.), washed with the above minimal media without any carbon source, and resuspended with 1 mL of above minimal media containing indicated amounts of carbon source. […] The cells were harvested after 3 hours for LmACR-EcAldA co-expression and 1 hour for CaAbfT co-expression by centrifugation and the supernatant analyzed by HPLC or GC-MS as described in EXAMPLE 2. […]

[2] = test system: glycolate production from formaldehyde; test: Resting-cell bioconversion pathway 1 (HACS with LmACR-EcAldA), formaldehyde as sole carbon source; assay type: cell-based, E. coli; conditions: for glycolate productivity (glycolyl-CoA synthase activity) compared with RuHACL: 5 mM formaldehyde as sole carbon source
Text: as §1, §2, §3

[3] = In vitro kinetic assay of purified HACS variants; substrate propionaldehyde; assay type: biochemical; conditions: for Km: read-out: Km, app
Protocol: The kinetic assay was performed with a coupled reaction providing formyl-CoA from formate catalyzed by CoA transferase CaAbfT using acetyl-CoA as a CoA donor.
In vitro kinetic assay was comprised of 100 mM KPi pH 6.9, 10 mM MgCl2, 0.15 mM TPP, 2 mM acetyl-CoA, 1 μM CaAbfT, 0.25 μM HACS variants, and 20 mM sodium formate. Reactions were incubated at room temperature for 3 min to convert formate to formyl-CoA, and then specific concentration of aldehyde (specifically acetaldehyde or propionaldehyde here) was added to the reaction. After incubating another 3 min, 1/20 of the reaction volume of 10 M NaOH solution was added to terminate the reactions. After 30 min hydrolysis, 1/20 of the reaction volume of 10 N H2SO4 was added to neutralize the pH. Samples were centrifuged at 20817×g for 15 minutes and the supernatant analyzed by GC-MS as described below.
For this analysis, 0.15 of the reaction volume of internal standard methyl succinate was added to the samples. The resulting sample was extracted into 4 mL ethyl acetate by vigorous vortexing for 20 min. The organic phase was separated and evaporated to dryness under a stream of nitrogen. The residue was dissolved in 30 μL pyridine and 30 μL N,O-Bis(trimethylsilyl)trifluoroacetamide (BSTFA) and incubated at 60° C. for 15 minutes. Compound identification and analysis was performed by GC-MS using an Agilent 7890B Series Custom Gas Chromatography system equipped with a 5977B Inert Plus Mass Selective Detector Turbo EI Bundle (for identification) and an Agilent HP-5-ms capillary column (0.25 mm internal diameter, 0.25 μm film thickness, 30 m length). Samples were analyzed by GC (1 μL injection with a 20:1 split ratio) using helium as the carrier gas at a flowrate of 1.5 mL/min and the following temperature profile: initial 90° C. for 3 min; ramp at 15° C./min to 170° C.; ramp at 20° C./min to 300° C. and hold for 8 min. The injector and detector temperature were 250° C. and 350° C., respectively.
As hypothesized from Example 3 (FIG. 22B), JGI15 had lower Km with lower kcat with respect to formaldehyde in comparison with JGI20 (Table 8). With longer chain aldehydes JGI15 and JGI20 has lower Km (sub millimolar) to acetaldehyde and propionaldehyde compared to JGI23 and JGI24, while also lower Kcat as well. Which indicates they have stronger affinity to the aldehyde and lower enzymatic activity. JGI23 and JGI24 are promising as they have better activity (higher Kcat) which have a good potential to work better in vivo by improve their affinity to substrates (lower Km). Similarly, AcHACL as lower Km with acetone while JGI15 as better Kcat (Table 8).

[4] = 0.5 mM formaldehyde and 20 mM formate co-fed

Molecule | glycolate productivity under high formaldehyde concentration ([1]; 5 mM formaldehyde and 20 mM formate co-fed) | glycolate productivity (glycolyl-CoA synthase activity) compared with RuHACL [2] | Kcat, app [3] | Km [3] | glycolate productivity relative to JGI20 [1, 4] | glycolate productivity relative to RuHACL [1, 4] | glycolate productivity relative to RuHACL ([2]; 5 mM formaldehyde sole carbon source, optimal inducer concentrations, 3 hours)
B1 | better glycolate productivity | exceeding the starting reference enzyme, RuHACL | 17.35 ± 1.97 s⁻¹ | 420 ± 60 µM | – | – | –
B2 | – | exceeding the starting reference enzyme, RuHACL | 11.08 ± 0.02 s⁻¹ | 200 ± 40 µM | 1.5 fold | 7 fold | 2.5 fold

— patent US20260078416A1, “ORTHOGONAL METABOLIC FRAMEWORK FOR ONE-CARBON UTILIZATION” (Mojia Biotech Pte. Ltd., priority 2021, published 2026)
